# From PMC3338697, “Determination of Membrane Protein Transporter Oligomerization in Native Tissue Using Spatial Fluorescence Intensity Fluctuation Analysis” (PLoS ONE, 2012)
# Target: the molecule itself
# Test: fluorescence image moment analysis; CLSM images of rat kidney cryostat sections immunolabelled with primary anti-NBCe1-A antibody and Alexa 488 secondary antibody; proximal tubule basolateral membranes; brightness normalised to non-specifically bound antibody (44±4 iu = 1 MEU)
protein,measurement,value
"native NBCe1-A in rat kidney (proximal tubule basolateral cell membranes) (natural protein, rat (endogenous in rat kidney), UniProt Q9JI66-2 1-1035, looked up, Detected by a primary rabbit anti-NBCe1-A antibody and an Alexa 488 secondary antibody; also called endogenous NBCe1-A; immunolabeled NBCe1-A; source: endogenous, rat kidney cryostat sections (bought: Zyagen RF-901)) MSTENVEGKPNNLGERGRARSSTFLRVFQPMFNHSIFTSAVSPAAERIRFILGEEDDSPAPPQLFTELDELLAVDGQEMEWKETARWIKFEEKVEQGGERWSKPHVATLSLHSLFELRTCMEKGSIMLDREASSLPQLVEMIADHQIETGLLKPDLKDKVTYTLLRKHRHQTKKSNLRSLADIGKTVSSASRMFSNPDNGSPAMTHRNLTSSSLNDISDKPEKDQLKNKFMKKLPRDAEASNVLVGEVDFLDTPFIAFVRLQQAVMLGALTEVPVPTRFLFILLGPKGKAKSYHEIGRAIATLMSDEVFHDIAYKAKDRHDLIAGIDEFLDEVIVLPPGEWDPAIRIEPPKSLPSSDKRKNMYSGGENVQMNGDTPHDGGHGGGGHGDCEELQRTGRFCGGLIKDIKRKAPFFASDFYDALNIQALSAILFIYLATVTNAITFGGLLGDATDNMQGVLESFLGTAVSGAIFCLFAGQPLTILSSTGPVLVFERLLFNFSKDHSFDYLEFRLWIGLWSAFMCLILVATDASFLVQYFTRFTEEGFSSLISFIFIYDAFKKMIKLADYYPINSDFRVGYNTHFSCACLPPDPVNLSVSNDTTLAPEDLPTVSSTDMYHNATFDWAYLSKKECVKFGGKLVGNNCDFVPDITLMSFILFLGTYTSSMAMKKFKTSRYFPTTARKLISDFAIILSILIFCVIDALVGVDTPKLIVPSEFKPTSPHRGWFVPPFGGNPWWVCLAAAIPALLVTILIFMDQQITAVIVNRKEHKLKKGAGYHLDLFWVAILMVVCSFMALPWYVAATVISIAHIDSLKMETETSAPGEQPKFLGVREQRVTGTLVFILTGLSVFMAPILKFIPMPVLYGVFLYMGVASLNGVQFMDRLKLLLMPLKHQPDFIYLRHVPLRRVHLFTSLQVLCLALLWILKSTVAAIIFPVMILALVAVRKGMDYLFSQHDLSFLDDVIPEKDKKKKEDEKKKKKKKGSLDSDNDDSDCPYSEKVPSIKIPMDITEQQPFLSDNKPLDRERSSTFLERHTSC",stoichiometry N,2
